Publication PMC2885444
pKd: −log10 of the molar value.

Key:
[1] = molecular target: CHD4 PHD2 finger, wild type (UniProt Q14839); assay: other fluorescence titration
[2] = molecular target: CHD4 PHD2 finger, wild type (UniProt Q14839); assay: other fluorescence titration + NMR titration
CHD4 PHD2 finger E447A = CHD4 PHD2 finger E447A (UniProt Q14839); assay: NMR titration
CHD4 PHD2 finger C460W = CHD4 PHD2 finger C460W (UniProt Q14839); assay: NMR titration

pKd [1] | pKd [2] | further results | Substance
6.22 | – | – | H3K9ac peptide (20-mer)
– | 3.40 | – | histone H3 peptide in which the primary amino group of Ala1 was acetylated
6.05 | – | – | H3K9me3 peptide (12-mer histone tail peptide)
– | 3.52 | – | H3K4me1 peptide (affinity measurements)
– | 3.00 | – | H3K4me2 peptide (affinity measurements)
– | – | pKd (CHD4 PHD2 finger E447A): 3.05; pKd (CHD4 PHD2 finger C460W): 2.43 | unmodified H3 peptide (12-mer histone tail peptide)
